Results reported in patent US20150087055A1, “ANALOG AND MIXED-SIGNAL COMPUTATION AND CIRCUITS IN LIVING CELLS” (MASSACHUSETTS INSTITUTE OF TECHNOLOGY, priority 2012, published 2015).

Test system: Plux promoter
Experiment: LuxR/Plux circuit characterization by flow cytometry (AHL transfer functions)
Type: cell-based, E. coli
Settings: no AHL, IPTG=10 mM, GFP, MG1655 Pro cells (FIG. 19C)
Method: Overnight cultures of E. coli strains were grown from glycerol freezer stocks at 37° C. 300 rpm in 3 mL of Luria-Bertani (LB)-Miller medium (Fisher #BP1426-2), with appropriate antibiotics: carbenicillin (50 μg/ml), kanamycin (30 μg/ml), chloramphenicol (25 μg/ml). The inducers used were arabinose, isopropyl-β-D-1-thiogalactopyranoside, and AHL 3OC6HSL (Sigma-Aldrich #K3007-10MG). Where appropriate, COPYCONTROL^24 from Epicentre (Madison, Wis.) was added to overnight cultures at 1× active concentration. Overnight cultures were diluted 1:100 into 3 mL fresh LB and antibiotics and were incubated at 37° C. 300 rpm for 20 minutes. […]
Cells were then diluted 4-fold into a new 96-well plate containing fresh 1×PBS and immediately assayed using a BD LSRFORTESSA-HTS. At least 50,000 events were recorded for all data, which was then gated by forward scatter and side scatter using CYFLOGIC v.1.2.1 software (CyFlo, Turku, Finland). The geometric means of the gated fluorescence distributions were calculated by Matlab. Fluorescence values are based on geometric means of flow cytometry populations from three experiments and the error bars represent standard errors of the mean.
For each experiment, fluorescence readings were taken on a BioTek Synergy H1 Microplate reader using BioTek Gen5 software to determine the minimum and maximum expression level for cultures in each 96-well plate. […]

B1: LuxR: quorum-sensing transcriptional activator induced by AHL, activates promoter Plux (protein, UniProt P12746 1-250, looked up)
Transcriptional activator …: MKNINADDTYRIINKIKACRSNNDINQCLSDMTKMVHCEYYLLAIIYPHSMVKSDISILDNYPKKWRQYYDDANLIKYDPIVDYSNSNHSPINWNIFENNAVNKKSPNVIKEAKTSGLITGFSFPIHTANNGFGMLSFAHSEKDNYIDSLFLHACMNIPLIVPSLVDNYRKINIANNKSNNDLTKREKECLAWACEGKSSWDISKILGCSERTVTFHLTNAQMKLNTTNRCQSISKAILTGAIDCPYFKN
repression of the Plux promoter in the absence of AHL: no repression
